# Source: IntAct's records for PubMed 16520382
# B1: SHC-transforming protein 1 (Homo sapiens), P29353-1 (parent)
# chain: MDLLPPKPKYNPLRNESLSSLEEGASGSTPPEELPSPSASSLGPILPPLPGDDSPTTLCSFFPRMSNLRLANPAGGRPGSKGEPGRAADDGEGIVGAAMPDSGPLPLLQDMNKLSGGGGRRTRVEGGQLGGEEWTRHGSFVNKPTRGWLHPNDKVMGPGVSYLVRYMGCVEVLQSMRALDFNTRTQVTREAISLVCEAVPGAKGATRRRKPCSRPLSSILGRSNLKFAGMPITLTVSTSSLNLMAADCKQIIANHHMQSISFASGGDPDTAEYVAYVAKDPVNQRACHILECPEGLAQDVISTIGQAFELRFKQYLRNPPKLVTPHDRMAGFDGSAWDEEEEEPPDHQYYNDFPGKEPPLGGVVDMRLREGAAPGAARPTAPNAQTPSHLGATLPVGQPVGGDPEVRKQMPPPPPCPGRELFDDPSYVNVQNLDKARQAVGGAGPPNPAINGSAPRDLFDMKPFEDALRVPPPPQSVSMAEQLRGEPWFHGKLSRREAEALLQLNGDFLVRESTTTPGQYVLTGLQSGQPKHLLLVDPEGVVRTKDHRFESVSHLISYHMDNHLPIISAGSELCLQQPVERKL
# Variants of: B1
# Conditions: with grb2_human GRB2, P62993
row,effect of a mutation on the interaction,Variant
1,decreasing interaction,MDLLPPKPKYNPLRNESLSSLEEGASGSTPPEELPSPSASSLGPILAPLAGDDSPTTLCSFFPRMSNLRLANPAGGRPGSKGEPGRAADDGEGIVGAAMPDSGPLPLLQDMNKLSGGGGRRTRVEGGQLGGEEWTRHGSFVNKPTRGWLHPNDKVMGPGVSYLVRYMGCVEVLQSMRALDFNTRTQVTREAISLVCEAVPGAKGATRRRKPCSRPLSSILGRSNLKFAGMPITLTVSTSSLNLMAADCKQIIANHHMQSISFASGGDPDTAEYVAYVAKDPVNQRACHILECPEGLAQDVISTIGQAFELRFKQYLRNPPKLVTPHDRMAGFDGSAWDEEEEEPPDHQYYNDFPGKEPPLGGVVDMRLREGAAPGAARPTAPNAQTPSHLGATLPVGQPVGGDPEVRKQMPPPPPCPGRELFDDPSYVNVQNLDKARQAVGGAGPPNPAINGSAPRDLFDMKPFEDALRVPPPPQSVSMAEQLRGEPWFHGKLSRREAEALLQLNGDFLVRESTTTPGQYVLTGLQSGQPKHLLLVDPEGVVRTKDHRFESVSHLISYHMDNHLPIISAGSELCLQQPVERKL [P47A;P50A]
